Measured values as given in the supplement of paper PMC7877785.
± gives the uncertainty stated by the source.

Assay: self-splicing fitness, log relative to wild type (ln ratio); higher = more splicing; Tetrahymena group I intron in knt gene, E. coli kanamycin selection, DiMSum; sequences stand for … in CUCUCU…GGAGGGAAAAGUUAUCAGGCAUGCACCUGGUAGCUAGUCUUUAAACCAAUAGAUUGCAUCGGUUUAAAAGGCAAGACCGUCAAAUUGCGGGAAAGGGGUCAACAGCCGUUCAGUACCAAGUCUCAGGGGAAACUUUGAGAUGGCCUUGCAAAGGGUAUGGUAAUAAGCUGACGGACAUGGUCCUAACCACGCAGCCAAGUCCUAAGUCAACAGAUCUUCUGUUGAUAUGGAUGCAGUUCACAGACUAAAUGUCGGUCGGGGAAGAUGUAUUCUUCUCAUAAGAUAUAGUCGGACCUCUCCUUAAUGGGAGCUAGCGGAUGAAGUGAUGCAACACUGGAGCCGCUGGGAACUAAUUUGUAUGCGAAAGUAUAUUGAUUAGUUUUGGAGUACUCGUGGUCG
Summary of the method: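 DiMSum derived fitness as the error-weighted combination of fold changes across replicates, kanamycin versus no kanamycin, normalised to wild type. E. coli BL21(DE3) held the library, which randomised all eight P1ex-region intron nucleotides within the knt kanamycin-resistance gene on pET-22b(+). Six replicate transformations grew overnight at 37°C or 30°C on LB agar with or without 25 μg/mL kanamycin, also containing 100 μg/mL carbenicillin, 50 μM IPTG and 0.2% rhamnose, and pooled colonies were amplicon-sequenced on an Illumina HiSeq 2500.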

Sequence | self-splicing fitness (ln) (30 °C) | self-splicing fitness (ln) (37 °C)
UGGCAGCAAUAUUACGAGGA | -2.34 ± 0.34 | -1.75 ± 0.26
UGGCAGCAAUAUUACGCAGC | – | -2.2 ± 0.39
UGGCAGCAAUAUUACGCCCU | -0.69 ± 0.27 | –
UGGCAGCAAUAUUACGCGCC | – | -2.9 ± 0.19
UGGCAGCAAUAUUACGGAUA | -0.806 ± 0.098 | -0.358 ± 0.11
UGGCAGCAAUAUUACGGGAU | -2.84 ± 0.23 | -2.48 ± 0.23
UGGCAGCAAUAUUACGGGCC | – | -1.78 ± 0.28
UGGCAGCAAUAUUACGUCCG | -0.782 ± 0.095 | -0.304 ± 0.13
UGGCAGCAAUAUUACGUCUA | -0.425 ± 0.091 | 0.66 ± 0.11
UGGCAGCAAUAUUACGUGAU | -1.46 ± 0.13 | -1.29 ± 0.17
UGGCAGCAAUAUUACGUGCA | -0.0165 ± 0.1 | -0.0321 ± 0.14
UGGCAGCAAUAUUACGUGCU | -2.71 ± 0.14 | -1.79 ± 0.17
UGGCAGCAAUAUUACGUGGA | -2.38 ± 0.17 | -1.02 ± 0.13
UGGCAGCAAUAUUACGUUGA | -1.43 ± 0.13 | -0.707 ± 0.14
UGGGAGCAAUAUUACGAAGA | -2.99 ± 0.47 | -2.68 ± 0.33
UGGGAGCAAUAUUACGACAU | -3.84 ± 0.039 | -2.9 ± 0.05
UGGGAGCAAUAUUACGAGAG | -3.13 ± 0.32 | -2.85 ± 0.36
UGGGAGCAAUAUUACGAUGG | -2.64 ± 0.18 | -2.77 ± 0.48
UGGGAGCAAUAUUACGAUUU | -3.39 ± 0.3 | –
UGGGAGCAAUAUUACGCAAA | – | -2.43 ± 0.45
UGGGAGCAAUAUUACGCGUG | -2.51 ± 0.12 | -1.67 ± 0.12
UGGGAGCAAUAUUACGCUAA | -2.74 ± 0.29 | -1.93 ± 0.31
UGGGAGCAAUAUUACGCUGG | -1.91 ± 0.29 | -1.55 ± 0.35
UGGGAGCAAUAUUACGGACA | -1.7 ± 0.14 | -0.535 ± 0.13
UGGGAGCAAUAUUACGGAUU | -4.21 ± 0.31 | -3.06 ± 0.26
UGGGAGCAAUAUUACGGCAC | – | -0.43 ± 0.35

Sequence | self-splicing fitness (ln) (30 °C) | self-splicing fitness (ln) (37 °C)
UGGGAGCAAUAUUACGGCCG | – | -1.37 ± 0.28
UGGGAGCAAUAUUACGGCGA | -1.73 ± 0.36 | -1.23 ± 0.28
UGGGAGCAAUAUUACGUGGU | -2.97 ± 0.35 | -1.56 ± 0.26
UGGGAGCAAUAUUACGUUGU | -3.01 ± 0.23 | -2.2 ± 0.34
UGGUAGCAAUAUUACGAAAA | -2.14 ± 0.19 | -0.612 ± 0.17
UGGUAGCAAUAUUACGAACC | -2.54 ± 0.29 | -1.93 ± 0.28
UGGUAGCAAUAUUACGAAGA | -1.45 ± 0.4 | -2.3 ± 0.49
UGGUAGCAAUAUUACGAAUA | -0.911 ± 0.17 | -1.17 ± 0.16
UGGUAGCAAUAUUACGAAUC | -2.14 ± 0.32 | –
UGGUAGCAAUAUUACGACCG | -1.22 ± 0.22 | -0.981 ± 0.27
UGGUAGCAAUAUUACGAGGG | – | -3.44 ± 0.33
UGGUAGCAAUAUUACGAUCU | -0.554 ± 0.13 | 0.576 ± 0.18
UGGUAGCAAUAUUACGAUUG | -0.422 ± 0.05 | 0.168 ± 0.073
UGGUAGCAAUAUUACGCAAU | -2.59 ± 0.24 | -2.56 ± 0.33
UGGUAGCAAUAUUACGCAGG | -2.77 ± 0.3 | -2.82 ± 0.48
UGGUAGCAAUAUUACGCAUC | – | -3.68 ± 0.46
UGGUAGCAAUAUUACGCCGA | -1.43 ± 0.45 | -0.492 ± 0.32
UGGUAGCAAUAUUACGCCGU | -1.56 ± 0.27 | -1.42 ± 0.36
UGGUAGCAAUAUUACGCUGG | -2.08 ± 0.2 | -2.52 ± 0.2
UGGUAGCAAUAUUACGCUUU | -1.85 ± 0.12 | -1.46 ± 0.12
UGGUAGCAAUAUUACGGAAC | – | -0.88 ± 0.24
UGGUAGCAAUAUUACGGAGU | -2.76 ± 0.27 | –
UGGUAGCAAUAUUACGGCCG | -1.62 ± 0.29 | -0.342 ± 0.32
UGGUAGCAAUAUUACGGGAC | – | -2.89 ± 0.27
UGGUAGCAAUAUUACGGGUA | -2.28 ± 0.14 | -0.719 ± 0.12
UGGUAGCAAUAUUACGGUAC | -3.95 ± 0.4 | -1.43 ± 0.27

Sequence | self-splicing fitness (ln) (30 °C) | self-splicing fitness (ln) (37 °C)
UGGUAGCAAUAUUACGUAAG | -1.53 ± 0.11 | -0.776 ± 0.16
UGGUAGCAAUAUUACGUACG | -1.02 ± 0.19 | -0.203 ± 0.23
UGGUAGCAAUAUUACGUAUU | -3.07 ± 0.14 | -1.84 ± 0.17
UGGUAGCAAUAUUACGUCCA | -0.714 ± 0.24 | -0.608 ± 0.3
UGGUAGCAAUAUUACGUGAG | -1.05 ± 0.092 | 0.0891 ± 0.11
UGGUAGCAAUAUUACGUGUG | -1.29 ± 0.071 | -0.469 ± 0.082
UGGUAGCAAUAUUACGUGUU | -3.24 ± 0.28 | -1.82 ± 0.29
UGGUAGCAAUAUUACGUUCG | -0.221 ± 0.12 | -0.719 ± 0.14
UGGUAGCAAUAUUACGUUGA | -0.502 ± 0.17 | -0.66 ± 0.15
UGGUAGCAAUAUUACGUUGU | -4.52 ± 0.36 | -2.86 ± 0.26
UGUAAGCAAUAUUACGAGGC | -1.16 ± 0.26 | -1.17 ± 0.41
UGUAAGCAAUAUUACGAGGG | -3.68 ± 0.27 | -2.14 ± 0.3
UGUAAGCAAUAUUACGAGUC | – | -2.47 ± 0.33
UGUAAGCAAUAUUACGAUUA | -0.52 ± 0.076 | 0.447 ± 0.089
UGUAAGCAAUAUUACGCGAA | -2.68 ± 0.14 | -1.33 ± 0.17
UGUAAGCAAUAUUACGCGUA | -0.832 ± 0.14 | -0.754 ± 0.15
UGUAAGCAAUAUUACGCUAU | -3.7 ± 0.32 | -2.24 ± 0.29
UGUAAGCAAUAUUACGCUCG | -1.1 ± 0.11 | -0.752 ± 0.13
UGUAAGCAAUAUUACGGAAG | -1.91 ± 0.13 | -2.38 ± 0.21
UGUAAGCAAUAUUACGGGAU | -3.28 ± 0.32 | -2.46 ± 0.29
UGUAAGCAAUAUUACGGGGA | – | -1.19 ± 0.25
UGUAAGCAAUAUUACGGUAC | -1.81 ± 0.45 | –
UGUAAGCAAUAUUACGGUUA | -0.297 ± 0.091 | -0.0116 ± 0.098
UGUAAGCAAUAUUACGUGCG | -0.869 ± 0.075 | -0.337 ± 0.1
UGUAAGCAAUAUUACGUUCA | -0.719 ± 0.1 | -0.118 ± 0.14
UGUCAGCAAUAUUACGAAAG | -1.72 ± 0.14 | -1.21 ± 0.17

Sequence | self-splicing fitness (ln) (30 °C) | self-splicing fitness (ln) (37 °C)
UGUCAGCAAUAUUACGAAAU | -2.21 ± 0.19 | -1.18 ± 0.19
UGUCAGCAAUAUUACGAAUU | -0.864 ± 0.13 | -1.04 ± 0.13
UGUCAGCAAUAUUACGACAC | -3.09 ± 0.47 | –
UGUCAGCAAUAUUACGACAG | -1.62 ± 0.16 | -0.615 ± 0.14
UGUCAGCAAUAUUACGACCC | -0.106 ± 0.22 | 0.358 ± 0.26
UGUCAGCAAUAUUACGACCU | -0.114 ± 0.17 | 0.566 ± 0.17
UGUCAGCAAUAUUACGACGC | -2.44 ± 0.22 | -1.61 ± 0.22
UGUCAGCAAUAUUACGACUG | -0.284 ± 0.1 | 0.525 ± 0.13
UGUCAGCAAUAUUACGAGAG | -3.21 ± 0.23 | -2.58 ± 0.2
UGUCAGCAAUAUUACGCAUU | -1.74 ± 0.09 | -0.133 ± 0.092
UGUCAGCAAUAUUACGCCAG | -1.31 ± 0.1 | -0.7 ± 0.12
UGUCAGCAAUAUUACGCCAU | -1.79 ± 0.18 | -1.98 ± 0.16
UGUCAGCAAUAUUACGCGAG | -1.31 ± 0.096 | -0.991 ± 0.098
UGUCAGCAAUAUUACGCGAU | -3.41 ± 0.4 | -2.2 ± 0.34
UGUCAGCAAUAUUACGCGGA | -2.91 ± 0.2 | -1.52 ± 0.15
UGUCAGCAAUAUUACGCGUC | -2.7 ± 0.3 | -1.51 ± 0.29
UGUCAGCAAUAUUACGGAAU | -2.63 ± 0.15 | -0.922 ± 0.14
UGUCAGCAAUAUUACGGACA | -3.1 ± 0.29 | -1.75 ± 0.21
UGUCAGCAAUAUUACGGACG | -2.2 ± 0.15 | -1.34 ± 0.18
UGUCAGCAAUAUUACGGAUG | -2.07 ± 0.088 | -0.996 ± 0.1
UGUCAGCAAUAUUACGGCAG | -1.55 ± 0.11 | -0.219 ± 0.13
UGUCAGCAAUAUUACGGGAC | -4.31 ± 0.23 | -2.93 ± 0.34
UGUCAGCAAUAUUACGGGCC | -0.854 ± 0.12 | -0.00781 ± 0.16
